The source of these data is patent US20090148905A1 (published 2009).

The target in one assay is T1, human IL-13 (human, UniProt P35225 35-146).
T1 construct: E. coli-expressed, made and purified at GSK; also called rhIL-13; recombinant E. coli-expressed human IL-13

Another assay deals with T2, human IL-4 (human, UniProt P05112 25-153).
T2 construct: E. coli-expressed, made and purified at GSK; also called rhIL-4; recombinant E. coli-expressed human IL-4
T2 sequence: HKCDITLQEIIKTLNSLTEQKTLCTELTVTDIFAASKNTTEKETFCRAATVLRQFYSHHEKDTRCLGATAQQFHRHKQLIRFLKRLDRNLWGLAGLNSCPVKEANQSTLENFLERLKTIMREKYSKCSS
The experiment in a line: Biacore.

B1: Anti-human IL-13 monoclonal antibody (also known as 586) (antibody, human IgG1, kappa)
heavy: not shown
light: DIVMTQSPLSLPVTPGEPASISCRSSQNIVHINGNTYLEWYLQKPGQSPRLLIYKISDRFSGVPDRFSGSGSGTDFTLKISRVEADDVGIYYCFQGSHVPWTFGQGTKLEIKRTVAAPSVFIFPPSDEQLKSGTASVVCLLNNFYPREAKVQWKVDNALQSGNSQESVTEQDSKDSTYSLSSTLTLSKADYEKHKVYACEVTHQGLSSPVTKSFNRGEC
notes: humanised, human IgG1/kappa; also called Anti-human IL-13 mAb; anti-IL13 mAb
Usually Kd stands for the constant that tells how readily two partners part at equilibrium. The low end stands for higher affinity, the high end for lower affinity. B1 returned a Kd with human IL-13 of 0.3 nM.

B2: PascoL-EPKSC-474 (bispecific antibody, human IgG1, kappa)
heavy: not shown
light: DIVLTQSPSSLSASVGDRVTITCKASQSVDYDGDSYMNWYQQKPGKAPKLLIYAASNLESGIPSRFSGSGSGTDFTFTISSLQPEDIATYYCQQSNEDPPTFGQGTKVEIKRTVAAPSVFIFPPSDEQLKSGTASVVCLLNNFYPREAKVQWKVDNALQSGNSQESVTEQDSKDSTYSLSSTLTLSKADYEKHKVYACEVTHQGLSSPVTKSFNRGECEPKSCDKTHTCPPCPGSGVQLLESGGGLVQPGGSLRLSCAASGFTFAWYDMGWVRQAPGKGLEWVSSIDWHGEVTYYADSVKGRFTISRDNSKNTLYLQMNSLRAEDTAVYYCATAEDEPGYDYWGQGTLVTVSS
With B2, the “fold less potent than Pascolizumab” value in the assay with human IL-4 is around 2 fold.
